In patent publication EP4613767A1 (Shanghai Qilu Pharmaceutical Research and Development …, dated 2025):

What was measured:
[1] = target: T1, human CD3 naturally expressed on Jurkat cells (human, UniProt P07766 23-207; P04234 22-171; P09693 23-182); assay: FACS on Jurkat cells naturally expressing human CD3
T1 construct: whole, on cells; also called hCD3

[2] = target: T2, monkey GPC3 protein (Acro, Cat. No.: GP3-C522a) (monkey); assay: SPR Biacore 8K, anti-human Fc on CM5 chip, GPC3 protein as analyte, 1:1 fit
T2 construct: Bought recombinant protein

[3] = target: T3, human CD3 E&D protein (Acro, Cat. No.: CDD-H52W1) (human, UniProt P07766 23-126; P04234 22-105); assay: SPR Biacore 8K, CD3 E&D immobilised on CM5 chip, antibody as analyte, 1:1 fit
T3 construct: Bought recombinant protein

[4] = target: monkey CD3 E&D protein (Acro, Cat. No.: CDD-C52W4) (monkey, UniProt Q95LI5 22-117; Q95LI8 22-105); assay: as above
Chain of monkey CD3 E&D protein (Acro, Cat. No.: CDD-C52W4) (Q95LI5 22-117, chain 1 of 2): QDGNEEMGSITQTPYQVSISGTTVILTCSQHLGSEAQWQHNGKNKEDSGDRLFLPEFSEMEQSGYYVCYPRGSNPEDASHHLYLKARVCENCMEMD
Chain of monkey CD3 E&D protein (Acro, Cat. No.: CDD-C52W4) (Q95LI8 22-105, chain 2 of 2): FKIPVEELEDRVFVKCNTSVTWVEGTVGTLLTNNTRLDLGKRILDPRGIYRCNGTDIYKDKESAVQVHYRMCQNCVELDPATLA

T3 sequence (P07766 23-126, chain 1 of 2): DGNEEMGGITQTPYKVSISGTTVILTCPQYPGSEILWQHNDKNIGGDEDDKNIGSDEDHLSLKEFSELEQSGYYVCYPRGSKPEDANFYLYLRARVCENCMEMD
T3 sequence (P04234 22-105, chain 2 of 2): as the sequence (Q95LI8 22-105, chain 2 of 2) above, with V5I, K15N, V20I, T32S, N33D, N34I, A64T, N74S, L83V counted along it
T1 sequence (P07766 23-207, chain 1 of 3): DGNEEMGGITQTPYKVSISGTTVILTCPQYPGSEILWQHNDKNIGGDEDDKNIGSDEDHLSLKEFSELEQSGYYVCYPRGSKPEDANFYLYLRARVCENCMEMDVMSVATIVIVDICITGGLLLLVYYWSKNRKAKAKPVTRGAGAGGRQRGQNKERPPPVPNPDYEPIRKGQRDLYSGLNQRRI
T1 sequence (P04234 22-171, chain 2 of 3): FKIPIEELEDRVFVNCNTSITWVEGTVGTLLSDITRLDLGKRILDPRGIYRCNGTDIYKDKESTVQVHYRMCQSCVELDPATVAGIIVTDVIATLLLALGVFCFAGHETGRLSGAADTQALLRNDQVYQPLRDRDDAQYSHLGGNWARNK
T1 sequence (P09693 23-182, chain 3 of 3): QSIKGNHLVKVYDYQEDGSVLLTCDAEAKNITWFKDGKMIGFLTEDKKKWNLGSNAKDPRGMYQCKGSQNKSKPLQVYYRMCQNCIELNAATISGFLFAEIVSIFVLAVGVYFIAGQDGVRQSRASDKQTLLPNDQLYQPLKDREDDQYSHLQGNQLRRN

B1: bispecific antigen-binding molecule G100 (bispecific antibody)
chain 1: not shown
chain 2: EVKLVESGGGLVQPGGSLKLSCAASGFTFNTYAMNWVRQAPGKGLEWVARIRSKYNNYATYYADSVKDRFTISRDDAKNTLYLQMNNLRTEDTAVYYCVRHGNFGNSYVSWFAYWGQGTLVTVSSGGGGSGGGGSGGGGSAQAVVTQEPSLTVSPGGTVTLTCRSSTGAVTTSNYANWVQQKPGQAPRGLIGGTNKRAPGTPARFSGSLLGGKAALTLSGAQPEDEAEYYCALWYSNLWVFGGGTKLTVLEPKSSDKTHTCPPCPAPEAAGGPSVFLFPPKPKDTLMISRTPEVTCVVVDVSHEDPEVKFNWYVDGVEVHNAKTKPREEQYNSTYRVVSVLTVLHQDWLNGKEYKCKVSNKALPAPIEKTISKAKGQPREPQVCTLPPSRDELTKNQVSLSCAVKGFYPSDIAVEWESNGQPENNYKTTPPVLDSDGSFFLVSKLTVDKSRWQQGNVFSCSVMHEALHNRYTQKSLSLSPGK
notes: Heterodimer of two chains (Format 1): one anti-GPC3 VHH on Knob-Fc, one anti-CD3 scFv on Hole-Fc; also called anti-CD3-GPC3 bispecific antibody; Format 1
B1 gave an EC50 [1] of 23.9 nM, a Kd [2] of 9.15 nM and a koff [2] of 0.00276 s⁻¹. The kon [2] was 302000 M⁻¹ s⁻¹, the Kd [3] was 3.49 nM and the koff [3] was 0.00286 s⁻¹. The kon [3] was 820000 M⁻¹ s⁻¹, the Kd [4] was 5.66 nM and the koff [4] was 0.00427 s⁻¹. The kon [4] was 755000 M⁻¹ s⁻¹.

B2: bispecific antigen-binding molecule G156 (bispecific antibody)
chain 1: not shown
chain 2: B1 chain 2
notes: Heterodimer of two chains (Format 2): two anti-GPC3 VHH on the Knob-Fc chain, one anti-CD3 scFv on Hole-Fc; also called anti-CD3-GPC3 bispecific antibody; Format 2
B2 showed an EC50 [1] of 27.4 nM, a Kd [2] of 9.62 nM and a koff [2] of 0.00275 s⁻¹. The kon [2] was 285000 M⁻¹ s⁻¹, the Kd [3] was 1.3 nM and the koff [3] was 0.00193 s⁻¹. The kon [3] was 1.48e+06 M⁻¹ s⁻¹, the Kd [4] was 2.79 nM and the koff [4] was 0.00367 s⁻¹. It also gave a kon [4] of 1.32e+06 M⁻¹ s⁻¹.
